Here are results for four molecules from US20250171555A1 (VISTERRA, published 2025).

Where a chain is given by its changes, count along the chain named.

In assay [1] the target is T1, C5aR2 VLP (UniProt Q9P296 1-337). Kind of assay: ELISA, C5aR2 VLP immobilized at 30 µg/mL, antibody titrated.
Assay [2] has as its target T1, C5aR2 VLP. Kind of assay: ELISA, C5aR2 VLP immobilized, as in Example 1. A general note: ELISA stands for enzyme-linked immunosorbent assay.

T1 sequence (Q9P296 whole entry): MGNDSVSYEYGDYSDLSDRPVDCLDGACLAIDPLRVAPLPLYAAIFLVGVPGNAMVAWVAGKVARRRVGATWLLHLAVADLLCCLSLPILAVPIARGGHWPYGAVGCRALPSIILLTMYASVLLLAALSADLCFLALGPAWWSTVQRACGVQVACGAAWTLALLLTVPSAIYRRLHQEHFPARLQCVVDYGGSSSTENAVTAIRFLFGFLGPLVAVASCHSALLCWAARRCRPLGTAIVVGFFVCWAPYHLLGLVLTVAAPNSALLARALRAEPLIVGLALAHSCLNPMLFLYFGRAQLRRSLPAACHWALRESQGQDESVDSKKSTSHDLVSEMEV

B1: c2139 (antibody, human IgG4 S228P, kappa)
heavy: not shown
light: DVQMTQSPSSLSASVGDRVTITCRASQSIVHSNGNTYLHWYQQKPGKAPKFLIYKVSNRFSGVPSRFSGSGSGTDFTLTISSLQPEDFATYYCAQYTLVPLTFGQGTKLEIKRTVAAPSVFIFPPSDEQLKSGTASVVCLLNNFYPREAKVQWKVDNALQSGNSQESVTEQDSKDSTYSLSSTLTLSKADYEKHKVYACEVTHQGLSSPVTKSFNRGEC
notes: also called humanized Site II antibody; monospecific C5aR1 antibody
On to B1, for which, in the assay with C5aR2 VLP [1], the binding result is reported as “no binding”.

B2: c2137-e1711 (bispecific antibody, human IgG4 S228P, kappa)
heavy: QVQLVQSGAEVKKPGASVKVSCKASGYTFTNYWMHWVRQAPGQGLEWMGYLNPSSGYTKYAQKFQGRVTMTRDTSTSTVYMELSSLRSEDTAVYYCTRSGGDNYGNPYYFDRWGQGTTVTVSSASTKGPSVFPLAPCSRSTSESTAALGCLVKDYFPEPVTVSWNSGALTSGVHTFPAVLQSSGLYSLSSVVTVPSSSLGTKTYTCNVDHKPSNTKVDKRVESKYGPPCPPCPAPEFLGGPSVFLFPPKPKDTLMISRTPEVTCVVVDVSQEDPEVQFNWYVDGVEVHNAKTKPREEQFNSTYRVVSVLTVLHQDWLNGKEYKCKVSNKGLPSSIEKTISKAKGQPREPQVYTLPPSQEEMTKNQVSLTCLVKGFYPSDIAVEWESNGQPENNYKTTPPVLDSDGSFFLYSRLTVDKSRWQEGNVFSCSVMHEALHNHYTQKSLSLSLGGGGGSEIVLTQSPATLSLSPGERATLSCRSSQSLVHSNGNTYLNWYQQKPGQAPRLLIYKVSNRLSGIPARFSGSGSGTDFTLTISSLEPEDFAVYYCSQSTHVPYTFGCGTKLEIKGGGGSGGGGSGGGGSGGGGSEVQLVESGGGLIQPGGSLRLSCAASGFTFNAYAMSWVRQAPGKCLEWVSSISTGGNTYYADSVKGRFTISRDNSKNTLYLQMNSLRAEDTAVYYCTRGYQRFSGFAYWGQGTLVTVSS
light: B1 light with Y96S
notes: Tetravalent Fab-Fc-linker-scFv; also called humanized biparatopic antibody; biparatopic C5aR1 antibody
B2: the binding result with C5aR2 VLP [1] is “no binding”.

B3: c2137-e1711-Fcmod (bispecific antibody, human IgG4 S228P, kappa)
heavy: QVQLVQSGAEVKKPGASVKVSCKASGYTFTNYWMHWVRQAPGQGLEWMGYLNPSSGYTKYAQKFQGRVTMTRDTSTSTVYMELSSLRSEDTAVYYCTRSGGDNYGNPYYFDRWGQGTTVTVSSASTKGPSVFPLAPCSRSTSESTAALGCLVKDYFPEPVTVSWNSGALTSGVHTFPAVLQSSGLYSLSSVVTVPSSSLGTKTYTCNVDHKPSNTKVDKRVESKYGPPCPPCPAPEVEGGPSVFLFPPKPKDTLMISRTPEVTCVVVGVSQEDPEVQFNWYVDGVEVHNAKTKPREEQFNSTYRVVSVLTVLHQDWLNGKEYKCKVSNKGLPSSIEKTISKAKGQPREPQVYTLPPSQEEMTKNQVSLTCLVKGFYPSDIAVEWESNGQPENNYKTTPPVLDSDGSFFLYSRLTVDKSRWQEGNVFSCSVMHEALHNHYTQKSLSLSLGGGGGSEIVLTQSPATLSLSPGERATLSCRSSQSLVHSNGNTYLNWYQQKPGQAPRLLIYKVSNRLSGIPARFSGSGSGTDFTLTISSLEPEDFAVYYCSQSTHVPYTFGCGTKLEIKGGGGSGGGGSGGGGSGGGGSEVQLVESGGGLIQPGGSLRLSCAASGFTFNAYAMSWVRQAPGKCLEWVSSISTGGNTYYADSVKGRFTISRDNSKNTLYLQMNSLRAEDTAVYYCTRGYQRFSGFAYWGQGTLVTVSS
light: B1 light with Y96S
notes: Fab-Fc-linker-scFv; also called biparatopic antibody with modified Fc domain
For the molecule B3, the binding result with C5aR2 VLP [2] is reported as “no binding”.

B4: c2139-Fcmod (antibody, human IgG4 S228P, kappa)
heavy: not shown
light: B1 light
notes: also called c2139-Fmod; monospecific antibody with modified Fc domain
For B4, the binding result with C5aR2 VLP [2] is reported as “no binding”.
